Results on 3 molecules are retold here after article PMC10370305, “Functional Degeneracy in Paracoccus denitrificans Pd1222 Is Coordinated via RamB, Which Links Expression of the Glyoxylate Cycle to Activity of the Ethylmalonyl-CoA Pathway” (Applied and Environmental Microbiology, 2023).

The target of experiment [1] is RamBPd (Pden_1365), regulator of acetate metabolism of Paracoccus denitrificans Pd1222 (Paracoccus denitrificans Pd1222). In words: mass photometry; 250 nM RamBPd in PBS (pH 7.4), no supplement; Refeyn One mass photometer.
Experiment [2] has the same target. Briefly: mass photometry; 250 nM RamBPd in PBS (pH 7.4), pre-incubated for 35 min with rising concentrations of free CoA or of a CoA ester (ethylmalonyl-, methylsuccinyl-, mesaconyl-, crotonyl-, beta-methylmalyl-CoA); tetramer to dimers.
The target in experiment [3] is T1, RamBPd (Pden_1365) (Paracoccus denitrificans, UniProt A1B1S2).
T1 construct: purified RamBPd, His-SUMO tag cleaved off
T1 sequence (A1B1S2 1-477): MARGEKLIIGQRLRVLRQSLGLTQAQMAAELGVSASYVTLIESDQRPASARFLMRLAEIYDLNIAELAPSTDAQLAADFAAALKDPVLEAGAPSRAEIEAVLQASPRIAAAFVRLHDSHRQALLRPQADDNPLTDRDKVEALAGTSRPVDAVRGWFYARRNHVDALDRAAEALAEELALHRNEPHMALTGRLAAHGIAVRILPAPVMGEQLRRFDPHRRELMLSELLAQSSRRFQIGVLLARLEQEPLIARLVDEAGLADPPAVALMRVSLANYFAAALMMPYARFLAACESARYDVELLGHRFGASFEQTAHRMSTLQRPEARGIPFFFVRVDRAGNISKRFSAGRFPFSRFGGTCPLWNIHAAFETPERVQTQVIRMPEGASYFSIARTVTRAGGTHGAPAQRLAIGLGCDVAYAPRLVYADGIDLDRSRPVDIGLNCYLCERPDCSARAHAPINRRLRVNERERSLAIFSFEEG
In words: mass photometry titration (tetramer to dimer shift). Format: binding.

Experiment [4] has as its target T1, RamBPd (Pden_1365). In words: mass photometry titration (tetramer to dimer shift; saturation at […], […] dimer to tetramer). The format is binding.

“RamBPd (Pden_1365), regulator of acetate metabolism of Paracoccus denitrificans Pd1222 (natural protein)” yielded a stoichiometry N in experiment [1] of 4. For the same molecule, in experiment [2], the ratio of dimer to tetramer at saturation with 62.5 uM free CoA (dimer:tetramer) stood at 1, the ratio of dimers to tetramers with beta-methylmalyl-CoA (dimer:tetramer) was determined as 9, the ratio of dimers to tetramers with crotonyl-CoA (dimer:tetramer) was 3 and the ratio of dimers to tetramers with mesaconyl-CoA (dimer:tetramer) amounted to 3. Moreover, in experiment [2], the stoichiometry N was 2.

`C[C@@H](C(=O)SCCNC(=O)CCNC(=O)[C@H](O)C(C)(C)COP(=O)(O)OP(=O)(O)OC[C@H]1O[C@@H](n2cnc3c(N)ncnc32)[C@H](O)[C@@H]1OP(=O)(O)O)[C@H](O)C(=O)O` [β-methylmalyl-CoA]: at RamBPd (Pden_1365) [3], the dissociation constant (Kd) was approximately 700 µM.

Regarding `CC(C)(COP(=O)(O)OP(=O)(O)OC[C@H]1O[C@@H](n2cnc3c(N)ncnc32)[C@H](O)[C@@H]1OP(=O)(O)O)[C@@H](O)C(=O)NCCC(=O)NCCS` [CoA], the “mass photometry titration (tetramer to dimer shift); saturation at 62.5 μM, 1:1 d” value on RamBPd (Pden_1365) [4] is recorded as “tetrameric RamBPd complex dissociates into a dimer upon the addition of CoA”.

A word on the stoichiometry N: it is the number of molecules, sites or subunits per partner or assembly. The Kd is the concentration at which binding is half-saturated.
